Measurements taken from US20080207449A1 (CROPDESIGN N V, published 2008).

B2: GAL4 transactivation domain fusion of AtDPb 1-385 (prey in pAD-GAL424) (other, not shown: large carriers)
chain: MTTTGSNSNHNHHESNNNNNNPSTRSWGTAVSGQSVSTSGSMGSPSSRSEQTITVVTSTSDTTFQRLNNLDIQGDDAGSQGASGVKKKKRGQRAAGPDKTGRGLRQFSMKVCEKVESKGRTTYNEVADELVAEFALPNNDGTSPDQQQYDEKNIRRRVYDALNVLMAMDIISKDKKEIQWRGLPRTSLSDIEELKNERLSLRNRIEKKTAYSQELEEQYVGLQNLIQRNEHLYSSGNAPSGGVALPFILVQTRPHATVEVEISEDMQLVHFDFNSTPFELHDDNFVLKTMKFCDQPPQQPNGRNNSQLVCHNFTPENPNKGPSTGPTPQLDMYETHLQSQQHQQHSQLQIIPMPETNNVTSSADTAPVKSPSLPGIMNSSMKPEN
notes: also called full-length AtDPb prey
B3: pGBTE2Fa226-356: GAL4 DNA-binding domain fusion of AtE2Fa amino acids 226-356 (other)
chain: MKLLSSIEQACDICRLKKLKCSKEKPKCAKCLKNNWECRYSPKTKRSPLTRAHLTEVESRLERLEQLFLLIFPREDLDMILKMDSLQDIKALLTGLFVQDNVNKDAVTDRLASVETDMPLTLRQHRISATSSSEESSNKGQRQLTVSNRILWKGVDACPGDEDADVSVLQLQAEIENLALEEQALDNQIRQTEERLRDLSENEKNQKWLFVTEEDIKSLPGFQNQTLIAVKAPHGTTLEVPDPDEAADHPQRRYRIILRSTMGPIDVYLVSEFEGKFE
notes: also called E2F5 dimerisation domain; E2Fa (=E2F5) dimerization domain
B6: pGBTE2Fb 1-127: GAL4 DNA-binding domain fusion of AtE2Fb amino acids 1-127 (other)
chain: MKLLSSIEQACDICRLKKLKCSKEKPKCAKCLKNNWECRYSPKTKRSPLTRAHLTEVESRLERLEQLFLLIFPREDLDMILKMDSLQDIKALLTGLFVQDNVNKDAVTDRLASVETDMPLTLRQHRISATSSSEESSNKGQRQLTVSMSEEVPQQFPSSKRQLHPSLSSMKPPLVAPGEYHRFDAAETRGGGAVADQVVSDAIVIKSTLKRKTDLVNQIVEVNELNTGVLQTPVSGKGGKAKKTSRSAKSNKSGTLASGSNAGSPGNNFAQAGT

Key:
[1] = target: T1, HA-tagged wild-type AtE2Fb, in vitro translated (Arabidopsis, UniProt Q9FV71 1-469); test: co-immunoprecipitation (anti-HA and anti-c-myc) of in vitro co-translated tagged proteins, SDS-PAGE autoradiography
T1 construct: wild-type (whole) protein; also called HA-AtE2Fb; E2F3
Protocol: (§1) In vitro transcription and translation experiments were performed using the TNT T7-coupled wheat germ extract kit (Promega) primed with appropriate plasmids for 90 min at 30° C. For immunoprecipitation, 10 μl of the total in vitro translated extract (50 μl) was diluted at 1:5 in Nonidet P40 buffer (50 mM Tris, pH 7.4, 150 mM NaCl, 1% Nonidet P40, 1 mM phenylmethylsulfonyl fluoride, 10 μg/ml leupeptin/aprotinin/pepstatin) and incubated for 2 h at 4° C. with anti-c-myc (9E10; BabCo) or anti-HA (16B12; BabCo) antibodies. Protein-A-Sepharose (40 μl 25% (v/v)) was added and incubated for 1 h at 4° C., then the beads were washed four times with Nonidet P40 buffer. Immune complexes were eluted with 10 μl […] sodium dodecyl sulfate (SDS) sample buffer and analyzed by 10% or 15% SDS-PAGE and by autoradiography.
(§2) Similar results were obtained by two-hybrid analysis (see Table 5 of Example 12). To test whether the structural requirements for heterodimerization of the AtDPs were similar to those of their animal homologs, several deletion mutants of AtDPa and AtDPb were constructed (for a schematic illustration, see FIGS. 52 and 53), tagged with the c-myc epitope (FIGS. 54 and 55, panels A). The interactions between the mutant AtDPs and AtE2Fb were analyzed in immunoprecipitation experiments with the specific anti-HA or anti-c-myc antibodies ([…], panels B and C, respectively). […]

[2] = target: T2, pGBTE2Fb-Rb: GAL4 DNA-binding domain fusion of AtE2Fb amino acids 1-385 (lacking the Rb-binding domain) (Arabidopsis); test: yeast two-hybrid, growth on His- minimal medium; legend: +, positive interaction
T2 construct: also called E2F3 N-terminal; E2Fb (=E2F3) N-terminal domain
Protocol: (§3) Different combinations between bait (pGBTE2Fa226-356, pGBTE2Fb-Rb, or pGBTE2Fb 1-127, SEQ ID NO:207) and prey constructs were transformed into yeast cells and assayed for their ability to grow on His⁻ minimal media after 3 days of incubation at 30° C. Bait plasmids co-transformed with empty pAD-GAL424 and prey plasmids co-transformed with empty pGBT9 were assessed along as controls for the specificity of the interaction.
(§4) Different combinations between AtE2Fs bait and AtDPs prey constructs were tested for growth on His minimal media. −, no interaction; +, positive interaction; NT, not tested.

[3] = target: T3, pGBT DPb 1-385: GAL4 DNA-binding domain fusion of AtDPb 1-385 (Arabidopsis thaliana); test: yeast two-hybrid, growth on His- minimal medium; legend: -, no interaction
T3 construct: its construction is not described

[4] = target: T4, pGBT DPa 1-292: GAL4 DNA-binding domain fusion of AtDPa 1-292 (Arabidopsis thaliana); test: as above
T4 construct: its construction is not described

[5] = target: T5, GAL4 transactivation domain fusion of AtDPa 1-292 (prey in pAD-GAL424) (Arabidopsis thaliana, UniProt Q9FNY3 1-292); test: yeast two-hybrid, growth on His- minimal medium; legend: +, positive interaction
T5 construct: also called full-length AtDPa prey
T5 sequence: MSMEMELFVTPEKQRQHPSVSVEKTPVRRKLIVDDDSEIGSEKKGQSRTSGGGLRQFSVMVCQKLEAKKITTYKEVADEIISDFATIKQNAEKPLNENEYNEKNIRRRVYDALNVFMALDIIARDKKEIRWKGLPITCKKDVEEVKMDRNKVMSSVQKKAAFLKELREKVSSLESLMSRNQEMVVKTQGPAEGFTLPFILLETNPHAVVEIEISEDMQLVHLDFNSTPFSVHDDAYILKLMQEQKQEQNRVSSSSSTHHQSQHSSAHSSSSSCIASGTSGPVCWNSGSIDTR
Protocol: as §3, §4

[6] = target: B2; test: as above
Protocol: as §3, §4

[7] = target: T6, CCP16, two-hybrid prey clone E2F5BBC1 (Arabidopsis thaliana, UniProt Q9FNY3 1-292); test: yeast two-hybrid library screen (GAL4, His prototrophy in HF7c); prey clone isolated with this bait
T6 construct: partial protein read from the clone; also called DPa; AtDPa
T6 sequence: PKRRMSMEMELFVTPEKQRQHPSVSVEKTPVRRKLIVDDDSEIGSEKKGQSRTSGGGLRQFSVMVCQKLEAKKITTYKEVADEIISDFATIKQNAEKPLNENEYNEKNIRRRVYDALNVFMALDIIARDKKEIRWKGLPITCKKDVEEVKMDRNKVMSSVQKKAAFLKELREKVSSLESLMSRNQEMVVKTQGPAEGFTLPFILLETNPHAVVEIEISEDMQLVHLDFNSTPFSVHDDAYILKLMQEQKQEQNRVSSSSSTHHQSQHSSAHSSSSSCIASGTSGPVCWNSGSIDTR
Protocol: For library screening, vectors and strains (HF7c) were provided with the Matchmaker two-hybrid system (Clontech). The dimerization and DNA-binding domains of the AtE2Fa (amino acids 226-356; SEQ ID NO:205) were amplified by polymerase chain reaction (PCR) and subcloned in-frame with the GAL4 DNA-binding domain of pGBT9 (Clontech) to create the bait plasmid pGBTE2Fa226-356. Screens were performed as described previously (De Veylder et al. 1999; Planta 208, 453-462). A second library screening was performed with the AtE2Fb construct (pGBTE2Fb-Rb) lacking the Rb-binding domain (amino acids 1-385; SEQ ID-NO:206). Plasmids from interacting clones were isolated and sequenced.

[8] = target: T7, empty pGBT9 (GAL4 DNA-binding domain alone) (UniProt P04386 1-147); test: yeast two-hybrid, growth on His- minimal medium; empty bait vector control; legend: -, no interaction
T7 construct: empty bait vector, control for specificity; also called pBGT9
Protocol: as §3, §4

[9] = target: T2, pGBTE2Fb-Rb: GAL4 DNA-binding domain …; test: yeast two-hybrid, growth on His- minimal medium; legend: -, no interaction
[10] = target: B3; test: as above
[11] = target: B6; test: as above
[12] = target: T1, HA-tagged wild-type AtE2Fb, in vitro …; test: co-immunoprecipitation (anti-HA) of in vitro co-translated tagged proteins, SDS-PAGE autoradiography
Protocol: as §1, §2

[13] = target: T5, GAL4 transactivation domain fusion of …; test: yeast two-hybrid, growth on His- minimal medium; legend: -, no interaction
[14] = target: B2; test: as above

T1 sequence (Q9FV71 1-469, tags or fused parts left off): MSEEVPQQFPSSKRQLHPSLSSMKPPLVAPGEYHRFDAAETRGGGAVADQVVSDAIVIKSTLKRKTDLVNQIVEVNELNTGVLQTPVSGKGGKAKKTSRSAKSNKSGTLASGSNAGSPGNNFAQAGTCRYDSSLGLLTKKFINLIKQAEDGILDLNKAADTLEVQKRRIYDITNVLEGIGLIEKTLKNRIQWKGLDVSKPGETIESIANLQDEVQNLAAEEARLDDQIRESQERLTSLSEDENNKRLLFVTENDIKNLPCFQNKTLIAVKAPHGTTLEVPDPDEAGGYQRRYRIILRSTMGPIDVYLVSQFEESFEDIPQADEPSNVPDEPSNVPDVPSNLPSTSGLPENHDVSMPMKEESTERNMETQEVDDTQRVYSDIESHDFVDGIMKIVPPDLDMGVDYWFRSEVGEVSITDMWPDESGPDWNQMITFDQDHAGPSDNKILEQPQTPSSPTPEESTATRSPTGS

B1: c-myc-tagged AtDPa 172-292, in vitro translated (other)
chain: EQKLISEEDLEQKLISEEDLSLESLMSRNQEMVVKTQGPAEGFTLPFILLETNPHAVVEIEISEDMQLVHLDFNSTPFSVHDDAYILKLMQEQKQEQNRVSSSSSTHHQSQHSSAHSSSSSCIASGTSGPVCWNSGSIDTR
notes: also called c-myc-AtDPa 172-292
binding result [1]: no binding

B2
binding result [2]: binds | binding result [3]: no binding | binding result [4]: no binding

B3
binding result [5]: binds | binding result [6]: binds | binding result [7]: binds

B4: GAL4 transactivation domain fusion of AtE2Fa 226-356 (prey of Table V) (other, not shown: large carriers)
chain: NRILWKGVDACPGDEDADVSVLQLQAEIENLALEEQALDNQIRQTEERLRDLSENEKNQKWLFVTEEDIKSLPGFQNQTLIAVKAPHGTTLEVPDPDEAADHPQRRYRIILRSTMGPIDVYLVSEFEGKFE
notes: its construction is not described
binding result [8]: no binding | binding result [9]: no binding | binding result [10]: no binding | binding result [11]: no binding

B5: c-myc-tagged AtDPa 121-213, in vitro translated (other)
chain: EQKLISEEDLEQKLISEEDLIIARDKKEIRWKGLPITCKKDVEEVKMDRNKVMSSVQKKAAFLKELREKVSSLESLMSRNQEMVVKTQGPAEGFTLPFILLETNPHAVVEIEI
notes: also called c-myc-AtDPa 121-213; predicted dimerization domain of the AtDPa
binding result [12]: no binding

B6
binding result [13]: no binding | binding result [14]: no binding
